Source: the DeepSol protein solubility set

Test: soluble on expression in E. coli; label from the status in PepcDB or PDB records

| Sequence | soluble on expression in E. coli |
| --- | --- |
| MNLMNVADKVIKSAFESDEVFQKTLSAVIKEDLNLTAVDFAKKANIPPSTLYKILSGNRDPNIKTLRQIVKTIRDIKESDSGEFIAVIAARSVLDNIVETKKKIGGRLVTIREYSATSMEDAIISAVNAERDGAKALVCAPIVGPTVEKILNIPVTTIAPKNSLIDAIERALKKME | not soluble |
| MNLSNHFLVAMPDMEDAFFSQSVVYICKHDEDGALGIAINKPSPITMDMIFSATGKNIPFRMQHDSVMMGGPVQVERGYVVHTPIGNWQSSIGVSDNIALTSSRDVIENISREGAVDKILISIGYSSWGKGQLERELADNAWLTVPADEHILFDIPYEHRYAAAFAKLGIDPLALFSGAGHALEHHHHHH | soluble |
| MNMPLISIIMPVYNAECYLNQGILSCLNQSYQNIELILIDDGSTDKSIEIINNIIDKDKRVKLFFTPTNQGPAAARNIGLEKAQGDYITFLDSDDFIANDKLEKQLNFMLQNHLVMTHGNYAFCDLEGNQIKLVTTSKKIDYLTLLQGNQFKIMTVLVERESIKLLRFPNIKHEDYAFFLDCLKEVKQSILYSHQASSFVRIGKVSVSSNKFKSAIWTFNIYFKREKLGVVKSIYYFILYAYNGFIKYKK | not soluble |
| MNNALYNQIRIFQSIAREGNISAAARKLEITPPSVSNALRLLEEHIGHPLFVRTTRRIELTETGQQLLEQTAAAVETLEKSLEIIRDQNQEPSGAVRITLSRFAYLLILKPAMAAFCQQYPGIQLEISVYDGTVNIIEERFDLGIRFGDILEGGVVARPLMKPFREGLYASSAYLAEYGVPAMPADLHHHRLIGYRFITNNRILPLILNDHGEQLTVEMPGQLISNDIDVMADGIRHGLGIGRLFEPILQLQPDREQFIPVMEDYWKTYPPVYLYYPKNAGRTKRVKALIDFLIMYAADDAEKIGSSR | not soluble |
| MNNNENQTLISGGTVVTPTTEIEKGTVAFSNGKIVSVEAESHDNPDIDATGKYVLPGLVDLHGDDIERHLFPRAEERVDTTIALDRCDIANASAGVTTKYHAISFEDVPDDNRSIELARRLAEQIRNFNYETGARVDNRLHMRCELTNEASVDAVSEEIKSGGDLVSLVTHVPGTGQFTGENTLAQRYDRSDGELETGLQSLKTRRSGVPEAELLARAREVTELASNRNMTVASHDDETVASVDNAAAIGVDISEYPLSHRVAQRATELNLTVAMGAPNVVRGGSLWDGPDASQAIKDGVVDILCSDFRPQSLLSSVFIENDEPLKDRVFRVSTAPAAAAGLYDRGRLECGARADIIIVDPDPSPSIARTYVAGDQVYCSA | not soluble |
| MNNPEESAVTDLRKFTNLVLNGLVDEEATAAALIRYQFQQRTIKDVVRRGSEDPELKAQICDLLNHLVIYLNEEIVETSSKACPDGMDDRHFVQLEKRMHLMFEVYLAMNVVPDYLIPDLTKHVDASREAVKYSYSLCKDYYRWKELPLTLKEFFLDEKEEVKAVVDEPEPTMFARDDGVVSSLAHEKAQSDEDGKKKQFVAKTEKVLNNYRAKNPDYRTMRELINAKTKFRLEGIYCDSLIDDFISVWDMAIDIEPVKTEDKFAFTSLLKKVFLMMVDKRRNDFASKILDKYNNDASGVLPCLDNFVENFQTGLTAAINNLPLDANVLSNNMELFEKAKDPIIWYLLISPAYTVQQILLICVDNKGYVPLVSRIFRAIPTLFERSVNLTPMHFEGFKTQKLLITILHRVFIIGRTTWTSASQWENAAMMTMSFAKERKRKEGQPEKVEDKALLDSFSLVNFALNELFKDYRKPLKAVEIFVKMLQRLLANNNNARMLTNYQFSSSFFDDGNNYLPTSIIMLLMFDLLVEYDGQSNEVCDGARDILKSVSGRLNNDNIIFDTDTCRHLIDEKLNYAPWWIKYSICSWFSSSLQNPKKQVPSGVYKTIAEQHLDEFEQIKPEEVSTVSDCYFRSLFELGLFDVDLAIELLQYGHVAKFESSVVEKIALALVDSYGKKMSKRSGGLDIGKLIISMLQNSSYLESVKKIEHILVLFMAARIAKEKQLSAARVRTDDTIQTAYDEVISLNQVSDQLMDIFCETTKAHVDKEVMEVEQMRREVEVLLFSTPGTTPNQFKAMVEKENREQSLALQLSMIYLNCSYFCRLYQQVPIKLQQLMNSTLEKQFDSQKFLAKKVMDDVLTEKRKTEVVYAFVDTPVEPTPNEDNIQPVKPAELFRPPVVENVSVESTTYNSNGGGYRQGRYQTGYQGKNRRSNFEQPTSSRGSGRSDRTYAYKGNRFQPVNDSHVFAPRERENVYQNSSHDRDIPRNDYSEYDQEKLYLDDKQPRFHSENRNSNDVRRYSESKDSKYDNKNWNNRSSRWPSESEYSQEDSENRHLDQTIQSVRKFSYRENQQKHNRPGTSSASPPKNQEWKQHQQQKKSFGGGFGENGNKFNGNSRKQPERKPRYTSSNFYEQDEDSLQLLKPDRNELAQAMGLNDPPNPPKPRRSEWTRR | not soluble |
| MNNRSAVRILRLPAVIQKTGMARATIYDWLNPKSPRYDATFPKKRMLGVKSVGWIEAEIDEWLSQRCKLILEHHHHHH | not soluble |
| MNPAALSAFTRSLLFNRCSTSSFCNSITRNAVAFFATAAATPKINVNVGTIGHIDHGKTTLTSAITRVQAKKGFAKHIKFDEIDKGKEEKKRGITINVAHIGYESPLRRYSHTDCPGHSDFIKNMICGTSQMDVAVLVIAATDGVMEQTKEHLILAKQVGVKNMAIFINKADLVEEDDLDLVEMEARELLSLHGFNGDATPVIRGSALSALEGQDISCIERLIDALDSLPEPDRNEKDTFVMPIASKTAITGRGTVIVGTLERGVLKKGDKVEIKGDGQTLQTTASDIQVFGKSVKEVRAGDHCGVLCRGVKGDTVKRGMWAGHPGAVTITNRVKVELYLLSEAENGRKIGIRTGFTDKMYCSTWDQVGRFDMSNELLMPGEHTSATVLLMKDMPLRKGMPFTLREGSSKTTIARGIISDLEDHVAVEKHNLKKSAEKM | not soluble |
| MNPIVINRLQRKLGYTFNHQELLQQALTHRSASSKHNERLEFLGDSILSYVIANALYHRFPRVDEGDMSRMRATLVRGNTLAELAREFELGECLRLGPGELKSGGFRRESILADTVEALIGGVFLDSDIQTVEKLILNWYQTRLDEISPGDKQKDPKTRLQEYLQGRHLPLPTYLVVQVRGEAHDQEFTIHCQVSGLSEPVVGTGSSRRKAEQAAAEQALKKLELE | soluble |
| MNPNTVPTPARGAIRWEAHTCLPLLPNQDMSALLRYRDNGFHHVSVNVGMDMTAVGDVMQVIAGFRQWLIKHPENFMLAGTLADLQRARVQDKLAVSFDLEGSNMLLQDQAMVRLYADLGVRQMLLAYNLDNSCAGGCHGSGMGLTALGREFVGAINSAGIVMDCSHASKRASMEIIELSQRPVVFSHTNIKAVYDHPRTVDDEQIMACVESGGVIGLTGMGIFLGDPQASVEAFVRQIDYLAERAGTAHIGLGLDIELHPDDKDLAEGVNEDDWWPKEFYGGINGHRQLQPEALGQVAEALLRIGYDAAQINGIFGGNFMRVAQATWP | not soluble |
| MNQCKVMNDGYLEKRSNGLLQLWKKKRCVLSDEGLRLYGCKGDSGKEMRFEQMTTLDCVEYKRGLVYFTIVMNDGKEVDFRCQQEGTAWNAEIALALVRFKNRVAVQTGRNRHLSHLGSCGEGDVEL | not soluble |
| MNQWLKKKRESLGYTQESFAKEIGIAKTTYSSYEQGYRNPTVQTAKKMAKILQVPWTIFFDEEVLETYDF | not soluble |
| MNQYLAVTSNGMENLLVEELTKLGIENAKPVQAGVKFKATNEQIYRCCLWSRLASRFVRVLSEFTCNDDMDLYLSTSSINWVNQFHSSKRFVVDFNGTNREIRNSQYGAMKVKDGIVDCFEKKGLPRPNISKERPDIRVHVRLHKDKAILGVDMVGSGLHQRGYRPESGRAPLRETLAAAIIMRCGWDGHQPLLDPMCGSGTLLIEAAMMAANMAPGVKRKQWCFESLEDFEPDTWAEIKSEANVQARRGVKKVDAKFFGFDNDPKVLKVAQENARRAGVEELIEFAQGDVATITRLSGFENGVIVSNPPYGERLGTEPGLIALYTAFGGQLKAEFGGCKASIFSSSDELLSCLRMRADKQFKLNNGALPCHQKNYSIAERSADEVKGADTNTQIAPDFSNRLKKNIGKIGKWARKEKLDCYRIYDADLPEYNVAIDVYGDQIVIQEYAAPKNIPEEKAKRRLTDIIRATIQVTGVEANKVVLKVREKQKGRSQYQK | not soluble |
| MNRGSLYITATPIGNREDITLRAIDTLRSVDLIAAEDTRHSKKLLEHYGIKTPLLSLHEHNEAARATLLCEKLKQGLNVALISDAGTPLISDPGYRLVNAVREAGIEVVPIPGACAAIAALVASGLPTDRFIFEGFIPSKGEVRRKKLEDLKNQRRTIIFYESVHRIVNLIDLLNEIFGTERRATIARELTKKFETIHTATLAELKNWINENPVQEKGEFVVIVAGQTEKLTEINEEHQQLLTLLLSELSLKQAVSLATKISGLPRKKLYALALTIQQHLPHHRY | soluble |
